US20250382344A1, “Soluble GLP1/GIP/NPY2 Receptor Triple Agonists” (Boehringer Ingelheim International GmH, priority 2024, published 2025)
*1 amine or outer side, *2 acyl side, *3 side chain or, on linkers, in order; H or OH if unused. Where no end group is shown, it is not given here. Side-chain parts run from the residue outwards. [ ]: non-standard residue; d: D form. The star is where a group is joined. γDab = gamma-linked diaminobutyric acid unit, O=C([C@H](CCN[*:1])N[*:3])[*:2]; C20 diacid = O=C(O)CCCCCCCCCCCCCCCCCCC(=O)*; C18 diacid = O=C(O)CCCCCCCCCCCCCCCCC(=O)*; γGlu = O=C(O)[C@H](CCC(=O)[*:2])N[*:1]; εLys = N[C@@H](CCCCN[*:1])C(=O)[*:2]; dtOrn = not defined here; AEEA = NCCOCCOCC(=O)O; Aib = CC(C)(N)C(=O)O

T1: human GIP receptor (human, UniProt P48546 22-466)
T1 sequence (looked up): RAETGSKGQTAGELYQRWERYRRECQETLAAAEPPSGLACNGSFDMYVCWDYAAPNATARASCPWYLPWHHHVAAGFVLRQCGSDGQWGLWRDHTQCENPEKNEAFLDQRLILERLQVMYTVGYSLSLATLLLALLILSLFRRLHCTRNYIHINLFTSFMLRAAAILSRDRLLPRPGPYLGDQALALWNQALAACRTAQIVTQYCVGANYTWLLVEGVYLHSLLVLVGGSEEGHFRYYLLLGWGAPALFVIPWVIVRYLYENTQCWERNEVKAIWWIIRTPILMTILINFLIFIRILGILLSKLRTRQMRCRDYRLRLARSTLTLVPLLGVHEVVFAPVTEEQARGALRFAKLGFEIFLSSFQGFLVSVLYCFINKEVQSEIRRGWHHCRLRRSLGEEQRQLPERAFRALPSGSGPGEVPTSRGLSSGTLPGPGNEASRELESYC

T2: human neuropeptide Y2 receptor (human, UniProt P49146 1-381)
T2 sequence (looked up): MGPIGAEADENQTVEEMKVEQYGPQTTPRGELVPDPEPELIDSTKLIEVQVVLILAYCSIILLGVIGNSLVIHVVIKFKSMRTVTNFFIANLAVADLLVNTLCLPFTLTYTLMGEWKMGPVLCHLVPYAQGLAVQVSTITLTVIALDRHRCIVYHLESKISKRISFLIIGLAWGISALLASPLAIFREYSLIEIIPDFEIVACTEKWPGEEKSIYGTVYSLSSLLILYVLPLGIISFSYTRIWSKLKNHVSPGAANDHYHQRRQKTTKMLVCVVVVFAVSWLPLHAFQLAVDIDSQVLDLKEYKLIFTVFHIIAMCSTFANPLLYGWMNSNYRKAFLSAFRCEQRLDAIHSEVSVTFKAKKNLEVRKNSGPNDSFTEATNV

B1: Compound 100 (peptide)
peptide: Y[Aib]EGTFTSDYSI[Aib]LEKEAQ[Aib]EFVRHLINK([γGlu-γGlu-γGlu-γGlu-C18 diacid])[Aib]TRQRY-NH2
modifications: N-terminus assumed
SMILES: CC[C@H](C)[C@H](NC(=O)[C@H](CC(C)C)NC(=O)[C@H](Cc1c[nH]cn1)NC(=O)[C@H](CCCNC(=N)N)NC(=O)[C@@H](NC(=O)[C@H](Cc1ccccc1)NC(=O)[C@H](CCC(=O)O)NC(=O)C(C)(C)NC(=O)[C@H](CCC(N)=O)NC(=O)[C@H](C)NC(=O)[C@H](CCC(=O)O)NC(=O)[C@H](CCCCN)NC(=O)[C@H](CCC(=O)O)NC(=O)[C@H](CC(C)C)NC(=O)C(C)(C)NC(=O)[C@@H](NC(=O)[C@H](CO)NC(=O)[C@H](Cc1ccc(O)cc1)NC(=O)[C@H](CC(=O)O)NC(=O)[C@H](CO)NC(=O)[C@@H](NC(=O)[C@H](Cc1ccccc1)NC(=O)[C@@H](NC(=O)CNC(=O)[C@H](CCC(=O)O)NC(=O)C(C)(C)NC(=O)[C@@H](N)Cc1ccc(O)cc1)[C@@H](C)O)[C@@H](C)O)[C@@H](C)CC)C(C)C)C(=O)N[C@@H](CC(N)=O)C(=O)N[C@@H](CCCCNC(=O)CC[C@H](NC(=O)CC[C@H](NC(=O)CC[C@H](NC(=O)CC[C@H](NC(=O)CCCCCCCCCCCCCCCCC(=O)O)C(=O)O)C(=O)O)C(=O)O)C(=O)O)C(=O)NC(C)(C)C(=O)N[C@H](C(=O)N[C@@H](CCCNC(=N)N)C(=O)N[C@@H](CCC(N)=O)C(=O)N[C@@H](CCCNC(=N)N)C(=O)N[C@@H](Cc1ccc(O)cc1)C(N)=O)[C@@H](C)O
B2: Compound 167 (peptide)
peptide: YXEGTFTSDYSIXLEKQAQXAFVRHLINKXTRQRY
modifications: Aib at 2, 13, 20, 30; Lys29 epsilon-amino: C20DA-gGlu-gGlu-gGlu-gGlu-gGlu-AHX; C-terminal amide
B3: Compound 115 (peptide)
peptide: YXEGTFTSDLSIXLEKQAQXAFVRHLLNKXTRQRY
modifications: Aib at 2, 13, 20, 30; Lys29 epsilon-amino: C20DA-gGlu-gGlu-gGlu-gGlu-gGlu-gGlu-eLys; C-terminal amide
B4: Compound 104 (peptide)
peptide: YXEGTFTSDYSIXLEKQAEXAFVRHLINKXTRQRY
modifications: Aib at 2, 13, 20, 30; Lys29 epsilon-amino: C20DA-gGlu-gGlu-gGlu-gGlu-gGlu-gGlu-eLys; C-terminal amide
B5: Compound 146 (peptide)
peptide: YXEGTFTSDYSIXLEKQAQXAFVRHLINKXTRQXY
modifications: Aib at 2, 13, 20, 30; bhArg at 34; Lys29 epsilon-amino: C18DA-gGlu-gGlu-gGlu-gGlu-gGlu-gGlu-eLys; C-terminal amide
B6: Compound 145 (peptide)
peptide: YXEGTFTSDYSIXLEKQAQXEFVRHLINKXTRQRY
modifications: Aib at 2, 13, 20, 30; Lys29 epsilon-amino: C18DA-gGlu-gGlu-gGlu-gGlu-gGlu-gGlu-eLys; C-terminal amide
B7: Compound 105 (peptide)
peptide: YXEGTFTSDYSIXLDKQAQXAFVRHLINKXTRQRY
modifications: Aib at 2, 13, 20, 30; Lys29 epsilon-amino: C18DA-gGlu-gGlu-gGlu-gGlu-gGlu-gGlu-eLys; C-terminal amide
B8: Compound 160 (peptide)
peptide: YXEGTFTSDYSIELEKQAQXAFVRHLINKXTRQRY
modifications: Aib at 2, 20, 30; Lys29 epsilon-amino: C18DA-gGlu-gGlu-gGlu-gGlu-gGlu-gGlu-eLys; C-terminal amide
B9: Compound 128 (peptide)
peptide: YXEGTFTSDYSIXLEKQAQXAFVRALINKXTRQRY
modifications: Aib at 2, 13, 20, 30; Lys29 epsilon-amino: C18DA-gGlu-gGlu-gGlu-gGlu-gGlu-gGlu-eLys; C-terminal amide
B10: Compound 116 (peptide)
peptide: YXEGTFTSDYSIXLEKQAQXAFVRHLINKXTRQRY
modifications: Aib at 2, 13, 20, 30; NMeY at 35; Lys29 epsilon-amino: C18DA-gGlu-gGlu-gGlu-gGlu-gGlu-gGlu-eLys; C-terminal amide
B11: Compound 149 (peptide)
peptide: YXEGTFTSDYSIXLEKQAQXEFVRHLINKXTRQRY
modifications: Aib at 2, 13, 20, 30; Lys29 epsilon-amino: C20DA-gGlu-gGlu-gGlu-gGlu-gGlu-gGlu-eLys; C-terminal amide
B12: Compound 101 (peptide)
peptide: YXEGTFTSDYSIXLEKQAQXAFVRHLINKXTRQRY
modifications: Aib at 2, 13, 20, 30; Lys29 epsilon-amino: C20DA-gGlu-gGlu-gGlu-gGlu-gGlu-gGlu-gGlu; C-terminal amide
B13: Compound 103 (peptide)
peptide: YXEGTFTSDYSIXLEKQAEXAFVRHLINKXTRQRY
modifications: Aib at 2, 20, 30; aMeL at 13; Lys29 epsilon-amino: C20DA-gGlu-gGlu-gGlu-gGlu-gGlu-gGlu-eLys; C-terminal amide
B14: Compound 124 (peptide)
peptide: YXEGTFTSDYSIXLERQAQXAFVRHLINKXTRQRY
modifications: Aib at 2, 13, 20, 30; Lys29 epsilon-amino: C18DA-gGlu-gGlu-gGlu-gGlu-gGlu-gGlu-eLys; C-terminal amide
B15: Compound 164 (peptide)
peptide: YXEGTFTSDYSIXLEKEAQXAFVRHLINKXTRQRY
modifications: Aib at 2, 13, 20, 30; Lys29 epsilon-amino: C18DA-gGlu-gGlu-gGlu-gGlu-gGlu-gGlu-eLys; C-terminal amide
B16: Compound 111 (peptide)
peptide: YXEGTFTSDYSIXLEKQAAXAFVRHLINKXTRQRY
modifications: Aib at 2, 13, 20, 30; Lys29 epsilon-amino: C18DA-gGlu-gGlu-gGlu-gGlu-gGlu-gGlu-eLys; C-terminal amide
B17: Compound 90 (peptide)
peptide: YXEGTFTSDYSIXLEKQAQXAFVRHLINKXTRQXY
modifications: Aib at 2, 13, 20, 30; dOR at 34; Lys29 epsilon-amino: C18DA-gGlu-gGlu-gGlu-gGlu-gGlu-gGlu-eLys; C-terminal amide
B18: Compound 89 (peptide)
peptide: YXEGTFTSDYSIXLEEQAQXAFVRHLINKXTRQRY
modifications: Aib at 2, 20, 30; aMeL at 13; Lys29 epsilon-amino: C20DA-gGlu-gGlu-gGlu-gGlu-gGlu-gGlu-eLys; C-terminal amide
B19: Compound 109 (peptide)
peptide: YXEGTFTSDYSIXLEKQAQXAFIRHLINKXTRQRY
modifications: Aib at 2, 13, 20, 30; Lys29 epsilon-amino: C20DA-gGlu-gGlu-gGlu-gGlu-gGlu-gGlu-eLys; C-terminal amide
B20: Compound 92 (peptide)
peptide: YXEGTFTSDYSIXLEKQAQXAFVRHLINKXTRQRY
modifications: Aib at 2, 13, 20, 30; Lys29 epsilon-amino: C18DA-gGlu-gGlu-gGlu-gGlu-gGlu-gGlu-eLys; C-terminal amide

Experiments:
Experiment in all cases: cell-based or functional assay
human GLP-1 receptor = human GLP-1 receptor (human, UniProt P43220 24-463)
human GIP receptor = biological target: T1, human GIP receptor
[1] = biological target: T2, human neuropeptide Y2 receptor

Binder	EC50, CreLuc reporter, 0.5% hP (human GLP-1 receptor) [nM]	EC50, CreLuc reporter, 0.5% hP (human GIP receptor) [nM]	EC50, CreLuc reporter, 100% hP (human GLP-1 receptor) [nM]	EC50, CreLuc reporter, 0.5% hP [1] [nM]	EC50, CreLuc reporter, 100% hP (human GIP receptor) [nM]	EC50, CreLuc reporter, 100% hP [1] [nM]
B1	0.2	0.5	–	–	–	–
Y[Aib]EGTFTSDYSI[Aib]LEKQAQ[Aib]AFVRHLINK([dtOrn-γGlu-γGlu-γGlu-γGlu-γGlu-γGlu-C18 diacid])[Aib]TRQRY-NH2 (reading uncertain) [Compound 87]	–	–	5.6	16.5	–	–
Y[Aib]EGTFTSDYSI[Aib]LEKQAE[Aib]AFVRHLINK([εLys-AEEA-γGlu-γGlu-γGlu-γGlu-γGlu-C20 diacid])[Aib]TRQRY-NH2 [Compound 161]	2	–	5	–	–	–
Y[Aib]EGTFTSDYSI[Aib]LEKQAQ[Aib]EFVRHLINK([εLys-γGlu-γGlu-γGlu-γGlu-C18 diacid])[Aib]TRQRY-NH2 [Compound 163]	–	0.2	–	–	5.9	218
Y[Aib]EGTFTSDYSI[Aib]LEKQAQ[Aib]AFVRHLINK([γDab-γGlu-γGlu-γGlu-γGlu-γGlu-γGlu-C18 diacid])[Aib]TRQRY-NH2 [Compound 120]	–	–	4	23.9	–	–
Y[Aib]EGTFTSDYSI[Aib]LEKQAQ[Aib]AFVRHLINK([γGlu-γGlu-γGlu-γGlu-γGlu-γGlu-C18 diacid])[Aib]TRQRY-NH2 [Compound 134]	1	–	4	–	–	–
B2	1	–	18.7	13.3	–	267
B3	7	–	9.8	10.1	–	107
B4	2	–	12.9	17.5	–	129
B5	1	–	–	51.5	–	89.8
B6	0.5	–	1.8	–	–	94.2
B7	0.3	–	3.4	19.9	–	49.6
B8	7.1	–	27	15.5	–	28.5
B9	0.7	0.2	4	–	5.7	–
B10	2	–	–	–	3.4	–
B11	–	–	3.3	–	–	166
B12	–	1	20	–	–	–
B13	0.4	–	0.6	25.9	–	131
B14	0.5	0.1	–	–	4	–
B15	0.6	0.4	–	–	–	–
B16	4.7	–	6.1	53.6	–	77.4
B17	2	–	–	–	0.6	–
B18	0.2	–	1.7	–	0.9	–
B19	0.8	0.3	–	–	–	–
B20	–	–	2	–	–	22.6
